The assay concerns the target T1, human CD123-Fc-His fusion protein (internal source) (human, UniProt P26951 19-305).
T1 construct: not shown: Fc and His tag
T1 sequence (looked up): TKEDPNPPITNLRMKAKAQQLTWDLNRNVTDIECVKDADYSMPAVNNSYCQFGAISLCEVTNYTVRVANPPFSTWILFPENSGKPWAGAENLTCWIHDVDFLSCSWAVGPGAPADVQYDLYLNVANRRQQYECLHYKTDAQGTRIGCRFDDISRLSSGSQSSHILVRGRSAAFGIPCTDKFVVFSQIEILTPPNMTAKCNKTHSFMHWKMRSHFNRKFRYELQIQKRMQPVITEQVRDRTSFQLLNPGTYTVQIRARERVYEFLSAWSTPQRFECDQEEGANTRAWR
Kind of assay: SPR, Biacore 8K; CD123-Fc-His captured by anti-His, antibody as analyte, 1:1 Langmuir fit. The method, then:
Binding of antigens to the antibody constructs was measured using surface plasmon resonance (SPR) with a BIAcore 8K instrument (GE Healthcare) with HBS-EP+ buffer (GE Healthcare). For binding kinetics and affinity determination human CD3εδ-Fc-His and human CD123-Fc-His fusion proteins (both from internal source) were used as antigens. The anti-His capture antibody (His capture kit, GE Life Sciences) was immobilized via primary amine groups (11000 RU) on a research grade CM5 chip (GE Life Sciences) using standard procedures. Antigens were captured by the anti-His capture chip surface at a flow rate of 10 μL/min for 90 sec to reach antibody binding levels between 10 and 30 RU. […] Dissociation was measured at 30 μL/min by injection of HBS-EP+ buffer for 1200 sec. The chip surface was regenerated by inject of regeneration buffer (His capture kit, GE Life Sciences). Sensorgrams were double referenced with a blank chip surface and H BS-EP+ buffer blanks. Data were fitted with a 1:1 Langmuir binding model for determination of kinetic and affinity constants ka, kd and KD using Biacore 8K Evaluation software v1.11.7442 (GE Healthcare).
In general terms: Surface plasmon resonance follows binding to a sensor surface in real time, without labels.

For seven molecules, Kd results are on record in patent US20230391888A1 (Sanofi, published 2023).

What is called Kd is a measure of binding affinity in units of concentration. Read a high Kd as lower affinity.

B1: anti-CD3ε × anti-CD123-dsTrasKO2 (ID 34) (bispecific antibody)
light 1: not shown
heavy 1: not shown
heavy 2: EVQLQQSGPELVKPGASVKMSCKASGYTFTDYYMKWVKQSHGKSLEWIGDIIPSNGATFYNQKFKGKATLTVDRSSSTAYMHLNSLTSEDSAVYYCTRSHLLRASWFAYWGQGTLVTVSAGGGGSGGGGSEVQLVESGGGLVQPGGSLRLSCAASGFNIKDTYIHWVRQAPGKCLEWVAEIYPTNGYTEYADSVKGRFTISADTSKNTAYLQMNSLRAEDTAVYYCSRWGGDGFYAMDYWGQGTLVTVSSDKTHTCPPCPAPEAAGGPSVFLFPPKPKDTLMISRTPEVTCVVVDVSHEDPEVKFNWYVDGVEVHNAKTKPREEQYNSTYRVVSVLTVLHQDWLNGKEYKCKVSNKALPAPIEKTISKAKGQPREPQVCTLPPSRDELTKNQVSLSCAVKGFYPSDIAVEWESNGQPENNYKTTPPVLDSDGSFFLVSKLTVDKSRWQQGNVFSCSVMHEALHNRFTQKSLSLSPG
light 2: not shown
With B1, binding was put at a Kd of 0.239 nM. In other words, the sub-nanomolar range.

B2: anti-TNP × anti-CD123-dsTrasKO2 Negative control (ID 43) (bispecific antibody, human IgG1, kappa, L234A L235A)
light 1: DVVMTQSPLSLPVTLGQPASISCRSSQSLVHSIGNTYLHWYQQRPGQSPRLLIYKVSNRFSGVPDRFSGSGSGTDFTLKISRVEAEDVGVYYCSQSTHVPFTFGQGTKLEIKRTVAAPSVFIFPPSDEQLKSGTASVVCLLNNFYPREAKVQWKVDNALQSGNSQESVTEQDSKDSTYSLSSTLTLSKADYEKHKVYACEVTHQGLSSPVTKSFNRGEC
heavy 1: not shown
heavy 2: B1 heavy 2
light 2: not shown
On to B2, for which binding was put at a Kd of 0.546 nM.

B3: anti-CD3ε × anti-CD123-dsTrasKO2 (ID 37, alternative anti-CD3ε binding domain) (bispecific antibody)
light 1: DIVMTQTPLSLSVTPGQPASISCKSSQSLVHENLQTYLSWYLQKPGQSPQSLIYKVSNRFSGVPDRFSGSGSGTDFTLKISRVEAEDVGVYYCGQGTQYPFTFGSGTKVEIKRTVAAPSVFIFPPSDEQLKSGTASVVCLLNNFYPREAKVQWKVDNALQSGNSQESVTEQDSKDSTYSLSSTLTLSKADYEKHKVYACEVTHQGLSSPVTKSFNRGEC
heavy 1: not shown
heavy 2: B1 heavy 2
light 2: not shown
notes: also called anti-CD3ε × CD123-dsTrasKO2
In the case of B3, the Kd amounted to 0.386 nM.

B4: anti-CD3ε × anti-CD123 Wild Type (ID 33) (bispecific antibody)
light 1: not shown
heavy 1: not shown
heavy 2: EVQLQQSGPELVKPGASVKMSCKASGYTFTDYYMKWVKQSHGKSLEWIGDIIPSNGATFYNQKFKGKATLTVDRSSSTAYMHLNSLTSEDSAVYYCTRSHLLRASWFAYWGQGTLVTVSAASTKGPSVFPLAPSSKSTSGGTAALGCLVKDYFPEPVTVSWNSGALTSGVHTFPAVLQSSGLYSLSSVVTVPSSSLGTQTYICNVNHKPSNTKVDKKVEPKSCDKTHTCPPCPAPEAAGGPSVFLFPPKPKDTLMISRTPEVTCVVVDVSHEDPEVKFNWYVDGVEVHNAKTKPREEQYNSTYRVVSVLTVLHQDWLNGKEYKCKVSNKALPAPIEKTISKAKGQPREPQVCTLPPSRDELTKNQVSLSCAVKGFYPSDIAVEWESNGQPENNYKTTPPVLDSDGSFFLVSKLTVDKSRWQQGNVFSCSVMHEALHNRFTQKSLSLSPG
light 2: DFVMTQSPSSLTVTAGEKVTMSCKSSQSLLNSGNQKNYLTWYLQKPGQPPKLLIYWASTRESGVPDRFTGSGSGTDFTLTISSVQAEDLAVYYCQNDYSYPYTFGGGTKLEIKRTVAAPSVFIFPPSDEQLKSGTASVVCLLNNFYPREAKVQWKVDNALQSGNSQESVTEQDSKDSTYSLSSTLTLSKADYEKHKVYACEVTHQGLSSPVTKSFNRGEC
notes: Wild type bispecific IgG (first anti-CD3ε arm)
B4 had a Kd of 0.212 nM.

B5: anti-CD3ε × anti-CD123 Wild Type (ID 36, alternative anti-CD3ε binding domain) (bispecific antibody)
light 1: B3 light 1
heavy 1: not shown
heavy 2: B4 heavy 2
light 2: B4 light 2
Turning to B5, the dissociation constant Kd worked out at 0.352 nM.

B6: anti-CD3ε-dsTrasKO2 × anti-CD123 (ID 35) (bispecific antibody)
light 1: not shown
heavy 1: not shown
heavy 2: B4 heavy 2
light 2: B4 light 2
notes: CD3ε arm is the pseudoFab (dsTrasKO2); also called anti-CD3E-dsTrasKO2 × anti-CD123
Turning to B6, binding was put at a Kd of 0.257 nM. This Kd and that of the molecule before are within 1.5-fold of each other.

B7: anti-TNP × anti-CD123 Negative control Wild Type (ID 42) (bispecific antibody)
light 1: B2 light 1
heavy 1: not shown
heavy 2: B4 heavy 2
light 2: B4 light 2
B7 registered a Kd of 0.231 nM.
